Laboratory results as given in publication PMC4717663.

Molecular target: soluble αVβ3 headpiece (human) (UniProt P06756)
Experiment: fluorescence polarisation

fold-lower affinity than for αVβ6: 1000 fold
Substance: nonapeptide containing RGD from pro-TGF-β3
